# Reference: patent EP1514558A1 (Max-Planck-Gesellschaft zur Förderung der Wissenschaften …, dated 2005)
# Target: HA-tagged MARK2, baculovirus-expressed in Sf9 cells (Rattus norvegicus (Rat), UniProt O08679 1-722)
# Assay: cell-based or functional assay
# Chain of HA-tagged MARK2, baculovirus-expressed in Sf9 cells (O08679 other isoform, or with tags, fused parts or gaps limits assumed, form in doubt): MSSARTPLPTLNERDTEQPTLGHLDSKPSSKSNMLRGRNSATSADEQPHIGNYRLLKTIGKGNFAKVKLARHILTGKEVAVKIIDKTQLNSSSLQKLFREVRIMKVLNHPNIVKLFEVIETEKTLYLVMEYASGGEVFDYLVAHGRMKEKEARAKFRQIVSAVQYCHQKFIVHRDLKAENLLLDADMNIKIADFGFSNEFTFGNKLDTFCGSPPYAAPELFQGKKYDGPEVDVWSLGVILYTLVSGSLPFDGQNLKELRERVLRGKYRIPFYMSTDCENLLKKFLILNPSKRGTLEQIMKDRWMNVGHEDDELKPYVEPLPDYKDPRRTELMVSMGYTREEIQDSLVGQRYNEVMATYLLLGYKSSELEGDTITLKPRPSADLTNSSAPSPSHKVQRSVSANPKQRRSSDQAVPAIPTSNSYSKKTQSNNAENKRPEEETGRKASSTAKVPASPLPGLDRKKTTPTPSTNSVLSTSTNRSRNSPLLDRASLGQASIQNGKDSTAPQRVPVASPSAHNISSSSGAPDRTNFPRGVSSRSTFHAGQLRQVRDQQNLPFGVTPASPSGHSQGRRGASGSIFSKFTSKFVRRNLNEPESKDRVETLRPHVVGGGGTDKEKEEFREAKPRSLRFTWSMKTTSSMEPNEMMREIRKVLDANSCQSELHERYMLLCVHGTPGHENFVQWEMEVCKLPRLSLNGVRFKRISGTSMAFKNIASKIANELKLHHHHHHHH
binder,measurement,value
"myc-tagged MARKK, baculovirus-expressed in Sf9 cells (enzyme, not shown: small tags and cut ends) MGHHHHHHHHHHSSGHIEGRHMPSTNRAGSLKDPEIAELFFKEDPEKLFTDLREIGHGSFGAVYFARDVRTNEVVAIKKMSYSGKQSTEKWQDIIKEVKFLQRIKHPNSIEYKGCYLREHTAWLVMEYCLGSASDLLEVHKKPLQEVEIAAITHGALQGLAYLHSHTMIHRDIKAGNILLTEPGQVKLADFGSASMASPANSFVGTPYWMAPEVILAMDEGQYDGKVDVWSLGITCIELAERKPPLFNMNAMSALYHIAQNESPTLQSNEWSDYFRNFVDSCLQKIPQDRPTSEELLKHMFVLRERPETVLIDLIQRTKDAVRELDNLQYRKMKKLLFQEAHNGPAVEAQEEEEEQDHGGGRTGTVNSVGSNQSIPSMSISASSQSSSVNSLPDASDDKSELDMMEGDHTVMSNSSVIHLKPEEENYQEEGDPRTRASDPQSPPQVSRHKSHYRNREHFATIRTASLVTRQMQEHEQDSELREQMSGYKRMRRQHQKQLMTLENKLKAEMDEHRLRLDKDLETQRNNFAAEMEKLIKKHQASMEKEAKVMANEEKKFQQHIQAQQKKELNSFLESQKREYKLRKEQLKEELNENQSTPKKEKQEWLSKQKENIQHFQAEEEANLLRRQRQYLELECRRFKRRMLLGRHNLEQDLVREELNKRQTQKDLEHAMLLRQHESMQELEFRHLNTIQKMRCELIRLQHQTELTNQLEYNKRRERELRRKHVMEVRQQPKSLKSKELQIKKQFQDTCKIQTRQYKALRNHLLETTPKSEHKAVLKRLKEEQTRKLAILAEQYDHSINEMLSTQALRLDEAQEAECQVLKMQLQQELELLNAYQSKIKMQAEAQHDRELRELEQRVSLRRALLEQKIEEEMLALQNERTERIRSLLERQAREIEAFDSESMRLGFSNMVLSNLSPEAFSHSYPGASSWSHNPTGGSGPHWGHPMGGTPQAWGHPMQGGPQPWGHPSGPMQGVPRGSSIGVRNSPQALRRTASGGRTEQGMSRSTSVTSQISNGSHMSYT",activity of immunoprecipitated MARK2 (phosphorylation of TR1) on co-expression in Sf9 cells,~3 fold
